# From PMC5149402
# Target: rat GluD2 ATD tetramerised with an engineered tetrameric coiled-coil zipper based on GCN4 (rat | not stated)
substance,measurement,value
rat GluD2 ATD tetramerised with an engineered tetrameric coiled-coil zipper based on GCN4 (domain or fragment),stoichiometry N,4
